Reference: paper PMC7202667, “UNBRANCHED3 Expression and Inflorescence Development is Mediated by UNBRANCHED2 and the Distal Enhancer, KRN4, in Maize”

T1: UB2 (UNBRANCHED2), GST fusion (Zea mays, UniProt A0A804LTB0 =M+82-402, internal_change)
T1 sequence: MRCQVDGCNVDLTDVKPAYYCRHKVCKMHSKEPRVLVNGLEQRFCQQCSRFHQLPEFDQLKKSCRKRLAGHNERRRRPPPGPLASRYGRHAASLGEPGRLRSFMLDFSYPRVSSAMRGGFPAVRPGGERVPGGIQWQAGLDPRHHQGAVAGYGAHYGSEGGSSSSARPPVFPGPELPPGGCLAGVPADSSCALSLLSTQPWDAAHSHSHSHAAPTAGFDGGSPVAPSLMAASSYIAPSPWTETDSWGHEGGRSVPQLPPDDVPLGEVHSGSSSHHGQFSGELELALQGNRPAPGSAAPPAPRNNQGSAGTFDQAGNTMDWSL

B1: pUB3-P1 probe (EPUB3) (dsDNA)
DNA 1: GCCGAGGGCTTTTTGTAGACGCCAGGTACTTGCGCTTGTGGCGGCGAGCCGAGCG
DNA 2: CGCTCGGCTCGCCGCCACAAGCGCAAGTACCTGGCGTCTACAAAAAGCCCTCGGC
B2: KRN4-P4 probe (EP4) (dsDNA)
DNA 1: GCGTGTTGCCTACTTGCACTAGAGAGTACGTGAGGCAAACCAAATGTTTTCTAGCGAAC
DNA 2: GTTCGCTAGAAAACATTTGGTTTGCCTCACGTACTCTCTAGTGCAAGTAGGCAACACGC

Molecular target: T1, UB2 (UNBRANCHED2), GST fusion
Experiment: EMSA; poly(dI-dC), 5 mM MgCl2; EMSA: 10 mM Tris pH 7.5, 50 mM KCl, 1 mM DTT, 5 mM MgCl2, 2.5% glycerol, poly(dI-dC), 0.05% NP-40; 20-40 ng protein, probe 10 fM (so in the source); room temperature
Settings: protein: recombinant; tags: N-GST (pGEX-4T-1); label: 5'-biotin; blunt

Binder	binding result
B1	binds
B2	binds
